Test results from patent US6989144.

Assays:
Test in all cases: cell ELISA: soluble GPVI-Fc (0.45-1000 nM) competing with GPVI-U937 cells for 100 nM scFv
scFv clone C3 = target: T1, scFv clone C3
T1 construct: human scFv from a phage display library

scFv clone A10 = target: T2, scFv clone A10
T2 construct: human scFv from a phage display library; detected through an HA tag, purified through a polyHis tail

scFv clone B4 = target: T3, scFv clone B4
T3 construct: human scFv from a phage display library

B1: soluble human GPVI-Fc (extracellular domain of GPVI fused to Fc; hGPVI-human IgG1Fc) (Fc fusion)
chain: QSGPLPKPSLQALPSSLVPLEKPVTLRCQGPPGVDLYRLEKLSSSRYQDQAVLFIPAMKRSLAGRYRCSYQNGSLWSLPSDQLELVATGVFAKPSLSAQPGPAVSSGGDVTLQCQTRYGFDQFALYKEGDPAPYKNPERWYRASFPIITVTAAHSGTYRCYSFSSRDPYLWSAPSDPLELVVTGTSVTPSRLPTEPPSSVAEFSEATAELTVSFTNKVFTTETSRSITTSPKESDSPAGPARQYYTKGN
notes: also called hGPVI-hIgG1Fc; hrGPVI; not shown: human IgG1 Fc
B1 was tested, and the IC50 (scFv clone C3) was 38 nM, the IC50 (scFv clone A10) was 4.5 nM and the IC50 (scFv clone B4) was 5 nM.
